Source: paper PMC4891050, “A novel small-molecule compound targeting CD147 inhibits the motility and invasion of hepatocellular carcinoma cells” (Oncotarget, 2016)

T1: wild-type CD147 extracellular portion (residues 22-205) tagged with 6 x His, P35613
T1 chain: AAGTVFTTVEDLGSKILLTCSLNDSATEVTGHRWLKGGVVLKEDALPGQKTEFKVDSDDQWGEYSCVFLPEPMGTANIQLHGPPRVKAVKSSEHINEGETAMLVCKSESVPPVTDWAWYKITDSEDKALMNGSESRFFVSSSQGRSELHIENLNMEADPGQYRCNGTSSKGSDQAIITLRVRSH


Key:
[1] = target: T1, wild-type CD147 extracellular portion …; experiment: native gel or EMSA; non-denaturing SDS-PAGE: 5 ug purified protein with DMSO or AC-73 (0, 0.1, 0.25 or 0.5 uM), 5x Laemmli sample buffer lacking SDS, 10% SDS-PAGE without boiling, immunoblot with anti-His6; monomer and dimer bands; conditions: remark: other sources report otherwise
[2] = target: the molecule itself; experiment: as above

Binder	stoichiometry N [1]	binding result [2]
wild-type CD147 extracellular portion (residues 22-205) tagged with 6 x His, P35613-2 22-205 (domain or fragment) AAGTVFTTVEDLGSKILLTCSLNDSATEVTGHRWLKGGVVLKEDALPGQKTEFKVDSDDQWGEYSCVFLPEPMGTANIQLHGPPRVKAVKSSEHINEGETAMLVCKSESVPPVTDWAWYKITDSEDKALMNGSESRFFVSSSQGRSELHIENLNMEADPGQYRCNGTSSKGSDQAIITLRVRSH	2	
CD147 mutant E64A, extracellular portion tagged with 6 x His (domain or fragment, UniProt P35613-2 22-205, looked up, CD147 (EMMPRIN, HAb18G/CD147), extracellular portion, residues 22-205 as for CD147wt, with E64A; also called CD147mt; CD147mts; source: prokaryotic expression system, purified) AAGTVFTTVEDLGSKILLTCSLNDSATEVTGHRWLKGGVVLKADALPGQKTEFKVDSDDQWGEYSCVFLPEPMGTANIQLHGPPRVKAVKSSEHINEGETAMLVCKSESVPPVTDWAWYKITDSEDKALMNGSESRFFVSSSQGRSELHIENLNMEADPGQYRCNGTSSKGSDQAIITLRVRSH		binds
CD147 mutant E73A, extracellular portion tagged with 6 x His (domain or fragment, UniProt P35613-2 22-205, looked up, CD147 (EMMPRIN, HAb18G/CD147), extracellular portion, residues 22-205 as for CD147wt, with E73A; also called CD147mt; CD147mts; source: prokaryotic expression system, purified) AAGTVFTTVEDLGSKILLTCSLNDSATEVTGHRWLKGGVVLKEDALPGQKTAFKVDSDDQWGEYSCVFLPEPMGTANIQLHGPPRVKAVKSSEHINEGETAMLVCKSESVPPVTDWAWYKITDSEDKALMNGSESRFFVSSSQGRSELHIENLNMEADPGQYRCNGTSSKGSDQAIITLRVRSH		binds
